How the values were obtained:
[1] = first-phase clinical trial; cited from earlier work
[2] = molecular target: T1, TROP2 (human, UniProt P09758 27-323); experiment: cell-based or functional assay
T1 sequence (looked up): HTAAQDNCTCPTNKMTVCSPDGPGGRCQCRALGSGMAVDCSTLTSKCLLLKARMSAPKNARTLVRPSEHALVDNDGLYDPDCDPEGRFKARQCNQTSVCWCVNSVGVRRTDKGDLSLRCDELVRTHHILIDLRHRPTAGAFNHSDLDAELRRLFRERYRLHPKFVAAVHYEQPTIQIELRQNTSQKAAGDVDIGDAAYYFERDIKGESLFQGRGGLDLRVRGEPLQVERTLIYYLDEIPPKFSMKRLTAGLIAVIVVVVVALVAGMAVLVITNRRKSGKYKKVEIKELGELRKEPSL

[3] = molecular target: T1, TROP2; experiment: cell-based or functional assay; remark: listed apart in the source

Molecule: DS1062
- patients with adverse events above Grade 3 [1]: 48%
- patients with interstitial lung disease [1]: 8%

B1: ADC-5 (antibody, human IgG1, kappa, V domains shown)
VH: QVQLQQSGSELKKPGASVKVSCKASGYTFTNYGMNWVKQAPGQGLKWMGWINTYTGEPTYTDDFKGRFAFSLDTSVSTAYLQISSLKADDTAVYFCARGGFGSSYWYFDVWGQGSLVTVSS
VL: DIQLTQSPSSLSASVGDRVSITCKASQDVSIAVAWYQQKPGKAPKLLIYSASYRYTGVPDRFSGSGSGTDFTLTISSLQPEDFAVYYCQQHYITPLTFGAGTKVEIKR
modifications: Linker-Payload 1 joined by Sortase A ligation at the C-terminal GALPETGG tag of the light chain (resulting sequence LPXTGn with n = 3, then linker-payload); DAR value 3.5
- IC50, inhibition of proliferation of TROP2-positive BxPC-3 cells (CellTiterGlo, 120 h) [2]: 249 pM
- Endocytosis by TROP2-positive tumor cells: Half Life [3]: 45.6 min
- Endocytosis by TROP2-positive tumor cells: Maximum endocytosis (MFI) [3]: 18600 MFI
- Endocytosis by TROP2-positive tumor cells: Maximum endocytosis rate (%) [3]: 46%

B2: ADC-6 (antibody, human IgG1, kappa, V domains shown)
VH: B1 VH
VL: B1 VL
modifications: Linker-Payload 2 joined by Sortase A ligation at the C-terminal GALPETGG tag of the light chain; DAR value 3.6
- IC50, inhibition of proliferation of TROP2-positive BxPC-3 cells (CellTiterGlo, 120 h) [2]: 254 pM
- Endocytosis by TROP2-positive tumor cells: Half Life [3]: 42.8 min
- Endocytosis by TROP2-positive tumor cells: Maximum endocytosis (MFI) [3]: 18200 MFI
- Endocytosis by TROP2-positive tumor cells: Maximum endocytosis rate (%) [3]: 45%

B3: ADC-7 (antibody, human IgG1, kappa, V domains shown)
VH: B1 VH
VL: B1 VL
modifications: Linker-Payload 3 joined by Sortase A ligation at the C-terminal GALPETGG tag of the light chain; DAR value 3.6
- IC50, inhibition of proliferation of TROP2-positive BxPC-3 cells (CellTiterGlo, 120 h) [2]: 602 pM

B4: Ab2 (antibody, human IgG1, kappa, V domains shown)
VH: B1 VH
VL: B1 VL
- Endocytosis by TROP2-positive tumor cells: Half Life [3]: 48.2 min
- Endocytosis by TROP2-positive tumor cells: Maximum endocytosis (MFI) [3]: 18500 MFI
- Endocytosis by TROP2-positive tumor cells: Maximum endocytosis rate (%) [3]: 46%
